From patent US20250027068

B1: PRT-248 (protein)
chain: MVTSVWTKGVTPPTNFTYGEDVLHAPYVANQGWYDITKTFNGKDDLLCGAATAGNMLHWWFDQNKEQIENYLKKHPEKQKINFNGEQMFDVKEAIDTKDSQLDSKLFEYFKEKAFPNLSTKHLGVFPDHVIDMFINGYRLSLLNHGPTPVKRGSKDPRGGIFDAVFTRGDQSKLLTNRHDFKEKTLKEISDLIKQELTEGKALGISHTYANVRINHVINLWGADFDAEGNLEAIYVTDSDSNASIGMKKYFVGVNSSGKVAISAKEIEEDNIGAQVLGLFTLSTGQDIWNQTN
B2: PRT-256 (protein)
chain: MVTSVWTKGVTPPTNFTYGEDVLHAPYVANQGWYDITKLFNGKDDLLCGAATAGNMLHWWFDQNKEQIENYLKKHPEKQKINFNGEQMFDVKEAIDTKDSQLDSKLFEYFLEKAFPNLSTKHLGVFPDHVIDMFINGYRLSLLNHGPTPVKRGSKDPRGGIFDAVFTRGDQSKLLTNRHDFKEKTLKEISDLIKQELTEGKALGISHTYANVGINHVINLWGADFDAEGNLEAIAVTDSDSNASIGMKKYFVGVNSSGKVAISAKEIEEDNIGAQVLGLFTLSTGQDIWNQTN
B3: PRT-264 (protein)
chain: MVTSVWTKGVTPPTNFTYGEDVLHAPYVANQGWYDITKLFNGKDNLLCGAATAGNMLHWWFDQNKEQIENYLKKHPEKQKINFNGEQLFDVKEAIDTKDSQLDSKLFDYFKEKAFPYLSTKHLGVFPDHVIDMFINGYRLSLTNHGPTPVKRGSKDKRGGIFDAVFTRGVQSKLLTNRHDFKEKTLKEISDLIKQELTEGKALGISHTYANVRINHVINLWGADFDAEGNLEAIYVTDSDTNPSIGMKKYFVGVNSSGKVAISAKEIEEDNIGAQVLGLFTLSTGQDIWNQTN
B4: PRT-588 (protein)
chain: MRNQTTTYSEVTPSHITSVWTKGVTPPEQFIQGEDVFHAPYIANQGWYDITKTFNGKDDLLCGAATAGNMLHWWFDQNKEQIENYLKKHPEKQKIMFNNEEMFDLREAINTKDSQTDSALFSYFKDKAFPNLSARRLGVMPDHVLDMFINGYYLNVGNTDKTDVNRGTKDLRGGIFDAVFTRGDQSKLLTARHDLKNKTLKEISDLIKQELTEGKALALSHTYANVRINHVINLWGADFDAEGNLEAIYVTDSDSNASIGMKKYYVGVNSAGKVAISAKKIEGDNIGAQVLGLFTLSTGQDIWQQTNLEHHHHHH
B5: PRT-404 (protein)
chain: MVTSVWTKGVTPPADFTQGEDVFHAPYVANQGWYDITKTFNGKDDLLCGAATAGNMLHWWFDQNKEYIEAYLKKHPEKQKIMFGDQELLDVRKAINTKGSQKNSELFNYFRDKAFPNLSARRLGVMPDLVLDMFINGYYLNVTKTQTTDVNRTYQEKDKRGGIFDAVFTRGDQSKLLTSRHDFKEKGLKEISDLIKQELTEGKALGLSHTYANVRIGHVINLWGADFDSDGNLKAIYVTDSDSNASIGMKKYFVGVNSAGKVAISAKEIKEDNIGAQVLGLFTLSTGQDIWNQTN
B6: PRT-547 (protein)
chain: MANQEIRYSEETPKTITSVWTKGVTPPTDFIQNEDVLHAPYIANQGWYDITKTFNGKDDLLCGAATAGNMLHWWFDQNKEEIENYLKKHPEKQKINFNGEQMFDVKEAIDTKDSQTDSALFEYFKDKAFPYLSTKHLGVFPDHVIDMFINGYRLSLTNHGPTPVKRGTKDPRGGIFDAVFTRGDQSKLLTARHDFKEKTLNEISDLIKQELTEGKALGLSHTYANVRINHVINLWGADFNSEGNLEAIYVTDSDSNASIGMKKYYVGVNAAGKVAISAKEIEGDNIGAQVLGLFTLSTGQDIWEQTNLEHHHHHH
B7: PRT-600 (protein)
chain: MANQEIRYSEETPSTITSVWTKGVTPPTDFIQNEDVLHAPYIANQGWYDITKTFNGKDDLLCGAATAGNMLHWWFDQNKEQIENYLKKHPEKQKINFNGEQMFDVKEAIDTKDSQTDSALFEYFKDKAFPYLSTKHLGVFPDHVIDMFINGYRLSLTNHGPTPVKRGTKDPRGGIFDAVFTRGDQSKLLTSRHDFKEKTLNEISDLIKQELTEGKALGLSHTYANVRINHVINLWGADFNAEGNLEAIYVTDSDSNASIGMKKYYVGVNSAGKVAISAKEIEGDNIGAQVLGLFTLSTGQDSWNQTNLEHHHHHH
B8: PRT-584 (protein)
chain: MANQEIRYSEETPKTITSVWTKGVTPPTNFIYNEDVLHAPYIANQGWYDITKTFNGKDDLLCGAATAGNMLHWWFDQNKEQIERYLKKHPEKQKINFNGEQMFDVKEAIDTKDSQTNSKLFEYFKDKAFPYLSTKHLGVFPDHVIDMFINGYRLSLTNHGPTPVKRQTKDPRGGIFDAVFTRGDQSKLLTSRHDFKEKTLNEISDLIKQELTEGKALGLSHTYANVRINHVINLWGADFNAEGNLEAIYVTDSDSNASIGMKKYYVGVNSAGKVAISAKEIEGDNIGAQVLGLFTLSTGQDIWEQTNLEHHHHHH
B9: PRT-590 (protein)
chain: MANQEIRYSEETPSTVTSVWTKGVTPPTDFIQNEDVLHAPYIANQGWYDITKTFNGKDDLLCGAATAGNMLHWWFDQNKEQIENYLKKHPEKQKINFNGEQMFDVKEAIDTKDSQTDSALFEYFKDKAFPYLSTKHLGVFPDHVIDMFINGYRLSLTNHGPTPVKRGTKDPRGGIFDAVFTRGDQSKLLTSRHDFKEKTLNEISDLIKQELTEGKALGLSHTYANVRINHVINLWGADFNAEGNLEAIYVTDSDSNASIGMKKYYVGVNSAGKVAISAKEIEGDNIGAQVLGLFTLSTGQDIWNQTNLEHHHHHH
B10: PRT-272 (protein)
chain: MVTSVWTKGVTPPTDFIYGEDVLHAPYKAGQGWYDITKLFNGKDDLLCGAATAGNMLHWWFDQNKEQIENYLKKHPEKQKINFNGEQMFDVKEAIDTKDSQLDSKLFEYFLEKAFPYLSTKHLGVFPDHVIDMFINGYRLSLTNHGPTPVKRGSKDPRGGIFDAVFTRGDQSKLLTNRHDLKNKTLKEISDLIKQELTEGKALGISHTYANVRINHVINLWGADFDAEGNLEAIAVTDSDSNASIGMKKYFVGVNSSGKVAISAKEIEEDNIGAQVLGLFTLSTGQDIWNQTN
B11: PRT-578 (protein)
chain: MANQEIRYSKATPKVITSVWTKGVTPPEDFTYNEDVFHAPYLPNQGWYDITKTFNGKDDLLCGAATAGNMLHWWFDQNKEQIERYLKEHPEKQKINFNGEQMFDVKEAIDTKDSQTNSKLFEYFKDKAFPYLSTKHLGVFPDHVIDMFINGYRLSLTNHGPTPVKEQNKDPRGGIFDAVFTRGDQSKLLTSRHDFKEKTLKEISDLIKQELKEGKALGLSHTYANVRINHVINLWGADFDAEGNLEAIYVTDSDSNASIGMKKYYVGVNSAGKVAISAKEIEGDNIGAQVLGLFTLSTGKDIWEQTNLEHHHHHH
B12: PRT-527 (protein)
chain: MANQEIRYSEETPKTITSVWTKGVTPPTDFIKNEDVLHAPYIANQGWYDITKTFNGKDDLLCGAATAGNMLHWWFDQNKEEIENYLKKHPEKQKINFNGEQMFDVKEAIDTKDSQTDSALFEYFKDKAFPNLSTKHLGVMPDLVLDMFINGYYLSLGKHGPTPVKRGTKDPRGGIFDAVFTRGDQSKLLTSRHDFKEKTLNEISDLIKQELTEGKALALSHTYANVRINHVINLWGADFNSEGNLEAIYVTDSDSNASIGMKKYYVGVNSAGKVAISAKEIEGDNIGAQVLGLFTLSTGQDIWEQTNLEHHHHHH
B13: PRT-542 (protein)
chain: MANQEIRYSKNENPNVTIKWVHGIGEPTQAEKEKIEFWWYETTTTKFFNNRKVDHLGDGNQCWAKTDSNMLHWWFVQNEENINQYIEKKNITGKINFNGEQMFDVKEGIDDNQEPEKSYIANTFRTKKAHNLSTKHKGDYIINGLSWYLYGLNNFKNAHGPTPVKKKPKFYGPALFKDVFNRGDGNTPIIVETDFKEYTKKEFEDTLSAALDSKKAVGINIYGSNVDYQHAITLWGAAFDEEENIIAIYVVDNNFKFENRIFPYGIWYQKEGRPYLFNYEINSFVKNRYVGEITTLDKGEAQWQETNLEHHHHHH
B14: PRT-543 (protein)
chain: MANQEIRYSKNENPNVTIKWVHGIGEPTQSEKEKIEFWWYETTTTKFFNNRKVDPLGDGNQCWAKTDSNMLHWWFVQNEENINQYIEKKNITGKINFNGEQMFDVKEGIDDNQEPEKSYIANTFRTKKAHNLSTKHKGDYIINGLSWYLYGLNNFKNAHGPTPVKKKPKFYGPALFKDVFNRGDGNTPIIVETDFKEYTKKEFEDTLSAALDSKKAIGINIYGSNVDYQHAITLWGAAFDEEENIIAIYVVDNNFKFENRIFPYGIWYEKEGRPYLFNYEINSFVKNRYVGEITTLDKGEAQWQETNLEHHHHHH

Biological target: pooled human IgG (human IgG1, 2, 3 and 4)

Row | Protein | Enzyme Activity Endpoint Assay: Fab′2 | Enzyme Activity Endpoint Assay: Fc | Enzyme Activity Endpoint Assay: IgG | Enzyme Activity Endpoint Assay: scIgG | Enzyme Activity Endpoint Assay (purified): Fab′2 | Enzyme Activity Endpoint Assay (purified): Fc | Enzyme Activity Endpoint Assay (purified): IgG | Enzyme Activity Endpoint Assay (purified): scIgG
1 | B1 | 654 ng/µL | 370 ng/µL | 0 ng/µL | 0 ng/µL |  |  |  | 
2 | B2 | 610 ng/µL | 376 ng/µL | 55 ng/µL | 0 ng/µL |  |  |  | 
3 | B3 | 606 ng/µL | 353 ng/µL | 97 ng/µL | 0 ng/µL |  |  |  | 
4 | B4 | 658 ng/µL | 361 ng/µL | 0 ng/µL | 0 ng/µL |  |  |  | 
5 | B5 |  |  |  |  | 0 ng/µL | 0 ng/µL | 1580 ng/µL | 0 ng/µL
6 | B6 | 527 ng/µL | 359 ng/µL | 0 ng/µL | 256 ng/µL |  |  |  | 
7 | B7 | 992 ng/µL | 441 ng/µL | 0 ng/µL | 0 ng/µL |  |  |  | 
8 | B8 | 552 ng/µL | 369 ng/µL | 51 ng/µL | 285 ng/µL |  |  |  | 
9 | B9 | 954 ng/µL | 217 ng/µL | 0 ng/µL | 0 ng/µL |  |  |  | 
10 | B10 | 721 ng/µL | 389 ng/µL | 0 ng/µL | 0 ng/µL |  |  |  | 
11 | B11 | 698 ng/µL | 394 ng/µL | 0 ng/µL | 0 ng/µL |  |  |  | 
12 | B12 | 0 ng/µL | 142 ng/µL | 707 ng/µL | 396 ng/µL |  |  |  | 
13 | B13 | 0 ng/µL | 0 ng/µL | 1470 ng/µL | 0 ng/µL |  |  |  | 
14 | B14 | 0 ng/µL | 0 ng/µL | 1470 ng/µL | 0 ng/µL |  |  |  | 
